Assay results: US20120172293A1 (Takeda / Millennium, published 2012)
Non-standard residues stand in square brackets, D forms with d. *: point of attachment. Morpholinocarbonyl = O=C(N1CCOCC1)*; Amidino = amidino group, N=C(N)*; tBuAla = CC(C)(C)C[C@H](N)C(=O)O; Cha = N[C@@H](CC1CCCCC1)C(=O)O; Aib = CC(C)(N)C(=O)O; Carbamoyl = NC(=O)*

T1: human Y2 receptor (human, UniProt P49146 1-381)
T1 sequence (looked up): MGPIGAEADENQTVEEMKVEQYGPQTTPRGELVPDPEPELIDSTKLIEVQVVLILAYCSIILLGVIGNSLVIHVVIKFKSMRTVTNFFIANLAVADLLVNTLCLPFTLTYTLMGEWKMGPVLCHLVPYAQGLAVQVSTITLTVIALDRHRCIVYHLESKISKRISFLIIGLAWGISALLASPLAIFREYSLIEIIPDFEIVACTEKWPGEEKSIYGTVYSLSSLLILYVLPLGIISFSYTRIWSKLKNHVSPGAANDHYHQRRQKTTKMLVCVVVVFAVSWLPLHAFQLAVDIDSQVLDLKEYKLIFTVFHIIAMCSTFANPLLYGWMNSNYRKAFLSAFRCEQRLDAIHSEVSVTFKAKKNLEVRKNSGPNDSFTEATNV

B1: Ac-[D-Pro24, Glu26, Cha27,28,36, Aib31]-PYY(23-36) (peptide)
peptide: Ac-S[dP]RE[Cha][Cha]NL[Aib]TRQR[Cha]-NH2
SMILES: CC(=O)N[C@@H](CO)C(=O)N1CCC[C@@H]1C(=O)N[C@@H](CCCNC(=N)N)C(=O)N[C@@H](CCC(=O)O)C(=O)N[C@@H](CC1CCCCC1)C(=O)N[C@@H](CC1CCCCC1)C(=O)N[C@@H](CC(N)=O)C(=O)N[C@@H](CC(C)C)C(=O)NC(C)(C)C(=O)N[C@H](C(=O)N[C@@H](CCCNC(=N)N)C(=O)N[C@@H](CCC(N)=O)C(=O)N[C@@H](CCCNC(=N)N)C(=O)N[C@@H](CC1CCCCC1)C(N)=O)[C@@H](C)O
notes: also called compound No. 151
B2: Carbamoyl-[Asp23, D-Pro24, Cha27,28,36, Aib31]-PYY(23-36) (peptide)
peptide: Carbamoyl-D[dP]RH[Cha][Cha]NL[Aib]TRQR[Cha]-NH2
SMILES: CC(C)C[C@H](NC(=O)[C@H](CC(N)=O)NC(=O)[C@H](CC1CCCCC1)NC(=O)[C@H](CC1CCCCC1)NC(=O)[C@H](Cc1c[nH]cn1)NC(=O)[C@H](CCCNC(=N)N)NC(=O)[C@H]1CCCN1C(=O)[C@H](CC(=O)O)NC(N)=O)C(=O)NC(C)(C)C(=O)N[C@H](C(=O)N[C@@H](CCCNC(=N)N)C(=O)N[C@@H](CCC(N)=O)C(=O)N[C@@H](CCCNC(=N)N)C(=O)N[C@@H](CC1CCCCC1)C(N)=O)[C@@H](C)O
notes: also called compound No. 161; ureido-[Asp23,D-Pro24,Cha27,28,36,Aib31]-PYY(23-36)
B3: Amidino-[D-Pro24, Cha27,36, Leu(Me)28, Lys30, Aib31]-PYY(23-36) (peptide)
peptide: Amidino-S[dP]RH[Cha][tBuAla]NK[Aib]TRQR[Cha]-NH2
SMILES: C[C@@H](O)[C@H](NC(=O)C(C)(C)NC(=O)[C@H](CCCCN)NC(=O)[C@H](CC(N)=O)NC(=O)[C@H](CC(C)(C)C)NC(=O)[C@H](CC1CCCCC1)NC(=O)[C@H](Cc1c[nH]cn1)NC(=O)[C@H](CCCNC(=N)N)NC(=O)[C@H]1CCCN1C(=O)[C@H](CO)NC(=N)N)C(=O)N[C@@H](CCCNC(=N)N)C(=O)N[C@@H](CCC(N)=O)C(=O)N[C@@H](CCCNC(=N)N)C(=O)N[C@@H](CC1CCCCC1)C(N)=O
notes: also called compound No. 186
B4: Ac-[Glu23, D-Pro24, Cha27,36, Leu(Me)28, Lys30, Aib31]-PYY(23-36) (peptide)
peptide: Ac-E[dP]RH[Cha][tBuAla]NK[Aib]TRQR[Cha]-NH2
SMILES: CC(=O)N[C@@H](CCC(=O)O)C(=O)N1CCC[C@@H]1C(=O)N[C@@H](CCCNC(=N)N)C(=O)N[C@@H](Cc1c[nH]cn1)C(=O)N[C@@H](CC1CCCCC1)C(=O)N[C@@H](CC(C)(C)C)C(=O)N[C@@H](CC(N)=O)C(=O)N[C@@H](CCCCN)C(=O)NC(C)(C)C(=O)N[C@H](C(=O)N[C@@H](CCCNC(=N)N)C(=O)N[C@@H](CCC(N)=O)C(=O)N[C@@H](CCCNC(=N)N)C(=O)N[C@@H](CC1CCCCC1)C(N)=O)[C@@H](C)O
notes: also called compound No. 168
B5: Morpholinocarbonyl-[Asp23, D-Pro24, Cha27,28,36, Aib31]-PYY(23-36) (peptide)
peptide: Morpholinocarbonyl-D[dP]RH[Cha][Cha]NL[Aib]TRQR[Cha]-NH2
SMILES: CC(C)C[C@H](NC(=O)[C@H](CC(N)=O)NC(=O)[C@H](CC1CCCCC1)NC(=O)[C@H](CC1CCCCC1)NC(=O)[C@H](Cc1c[nH]cn1)NC(=O)[C@H](CCCNC(=N)N)NC(=O)[C@H]1CCCN1C(=O)[C@H](CC(=O)O)NC(=O)N1CCOCC1)C(=O)NC(C)(C)C(=O)N[C@H](C(=O)N[C@@H](CCCNC(=N)N)C(=O)N[C@@H](CCC(N)=O)C(=O)N[C@@H](CCCNC(=N)N)C(=O)N[C@@H](CC1CCCCC1)C(N)=O)[C@@H](C)O
notes: also called compound No. 173
B6: Ac-[D-Pro24, Thr26, Cha27,28,36, Aib31]-PYY(23-36) (peptide)
peptide: Ac-S[dP]RT[Cha][Cha]NL[Aib]TRQR[Cha]-NH2
SMILES: CC(=O)N[C@@H](CO)C(=O)N1CCC[C@@H]1C(=O)N[C@@H](CCCNC(=N)N)C(=O)N[C@H](C(=O)N[C@@H](CC1CCCCC1)C(=O)N[C@@H](CC1CCCCC1)C(=O)N[C@@H](CC(N)=O)C(=O)N[C@@H](CC(C)C)C(=O)NC(C)(C)C(=O)N[C@H](C(=O)N[C@@H](CCCNC(=N)N)C(=O)N[C@@H](CCC(N)=O)C(=O)N[C@@H](CCCNC(=N)N)C(=O)N[C@@H](CC1CCCCC1)C(N)=O)[C@@H](C)O)[C@@H](C)O
notes: also called compound No. 147
B7: Amidino-[Glu23, D-Pro24, Cha27,28,36, Lys30, Aib31]-PYY(23-36) (peptide)
peptide: Amidino-E[dP]RH[Cha][Cha]NK[Aib]TRQR[Cha]-NH2
SMILES: C[C@@H](O)[C@H](NC(=O)C(C)(C)NC(=O)[C@H](CCCCN)NC(=O)[C@H](CC(N)=O)NC(=O)[C@H](CC1CCCCC1)NC(=O)[C@H](CC1CCCCC1)NC(=O)[C@H](Cc1c[nH]cn1)NC(=O)[C@H](CCCNC(=N)N)NC(=O)[C@H]1CCCN1C(=O)[C@H](CCC(=O)O)NC(=N)N)C(=O)N[C@@H](CCCNC(=N)N)C(=O)N[C@@H](CCC(N)=O)C(=O)N[C@@H](CCCNC(=N)N)C(=O)N[C@@H](CC1CCCCC1)C(N)=O
notes: also called compound No. 190
B8: Ac-[D-Thr23, D-Pro24, Cha27,28,36, Aib31]-PYY(23-36) (peptide)
peptide: Ac-[dT][dP]RH[Cha][Cha]NL[Aib]TRQR[Cha]-NH2
SMILES: CC(=O)N[C@@H](C(=O)N1CCC[C@@H]1C(=O)N[C@@H](CCCNC(=N)N)C(=O)N[C@@H](Cc1c[nH]cn1)C(=O)N[C@@H](CC1CCCCC1)C(=O)N[C@@H](CC1CCCCC1)C(=O)N[C@@H](CC(N)=O)C(=O)N[C@@H](CC(C)C)C(=O)NC(C)(C)C(=O)N[C@H](C(=O)N[C@@H](CCCNC(=N)N)C(=O)N[C@@H](CCC(N)=O)C(=O)N[C@@H](CCCNC(=N)N)C(=O)N[C@@H](CC1CCCCC1)C(N)=O)[C@@H](C)O)[C@H](C)O
notes: also called compound No. 158
B9: Morpholinocarbonyl-[D-Pro24, Cha27,36, Leu(Me)28, Lys30, Aib31]-PYY(23-36) (peptide)
peptide: Morpholinocarbonyl-S[dP]RH[Cha][tBuAla]NK[Aib]TRQR[Cha]-NH2
SMILES: C[C@@H](O)[C@H](NC(=O)C(C)(C)NC(=O)[C@H](CCCCN)NC(=O)[C@H](CC(N)=O)NC(=O)[C@H](CC(C)(C)C)NC(=O)[C@H](CC1CCCCC1)NC(=O)[C@H](Cc1c[nH]cn1)NC(=O)[C@H](CCCNC(=N)N)NC(=O)[C@H]1CCCN1C(=O)[C@H](CO)NC(=O)N1CCOCC1)C(=O)N[C@@H](CCCNC(=N)N)C(=O)N[C@@H](CCC(N)=O)C(=O)N[C@@H](CCCNC(=N)N)C(=O)N[C@@H](CC1CCCCC1)C(N)=O
notes: also called compound No. 187
B10: Ac-[Tyr23, D-Pro24, Cha27,28,36, Aib31]-PYY(23-36) (peptide)
peptide: Ac-Y[dP]RH[Cha][Cha]NL[Aib]TRQR[Cha]-NH2
SMILES: CC(=O)N[C@@H](Cc1ccc(O)cc1)C(=O)N1CCC[C@@H]1C(=O)N[C@@H](CCCNC(=N)N)C(=O)N[C@@H](Cc1c[nH]cn1)C(=O)N[C@@H](CC1CCCCC1)C(=O)N[C@@H](CC1CCCCC1)C(=O)N[C@@H](CC(N)=O)C(=O)N[C@@H](CC(C)C)C(=O)NC(C)(C)C(=O)N[C@H](C(=O)N[C@@H](CCCNC(=N)N)C(=O)N[C@@H](CCC(N)=O)C(=O)N[C@@H](CCCNC(=N)N)C(=O)N[C@@H](CC1CCCCC1)C(N)=O)[C@@H](C)O
notes: also called compound No. 162
B11: Ac-[Glu23, D-Pro24, Cha27,36, Aib28,31, Lys30]-PYY(23-36) (peptide)
peptide: Ac-E[dP]RH[Cha][Aib]NK[Aib]TRQR[Cha]-NH2
SMILES: CC(=O)N[C@@H](CCC(=O)O)C(=O)N1CCC[C@@H]1C(=O)N[C@@H](CCCNC(=N)N)C(=O)N[C@@H](Cc1c[nH]cn1)C(=O)N[C@@H](CC1CCCCC1)C(=O)NC(C)(C)C(=O)N[C@@H](CC(N)=O)C(=O)N[C@@H](CCCCN)C(=O)NC(C)(C)C(=O)N[C@H](C(=O)N[C@@H](CCCNC(=N)N)C(=O)N[C@@H](CCC(N)=O)C(=O)N[C@@H](CCCNC(=N)N)C(=O)N[C@@H](CC1CCCCC1)C(N)=O)[C@@H](C)O
notes: also called compound No. 171
B12: Ac-[Glu23, D-Pro24, Cha27,28,36, Lys30, Aib31]-PYY(23-36) (peptide)
peptide: Ac-E[dP]RH[Cha][Cha]NK[Aib]TRQR[Cha]-NH2
SMILES: CC(=O)N[C@@H](CCC(=O)O)C(=O)N1CCC[C@@H]1C(=O)N[C@@H](CCCNC(=N)N)C(=O)N[C@@H](Cc1c[nH]cn1)C(=O)N[C@@H](CC1CCCCC1)C(=O)N[C@@H](CC1CCCCC1)C(=O)N[C@@H](CC(N)=O)C(=O)N[C@@H](CCCCN)C(=O)NC(C)(C)C(=O)N[C@H](C(=O)N[C@@H](CCCNC(=N)N)C(=O)N[C@@H](CCC(N)=O)C(=O)N[C@@H](CCCNC(=N)N)C(=O)N[C@@H](CC1CCCCC1)C(N)=O)[C@@H](C)O
notes: also called compound No. 137
B13: Ac-[Gly24, Cha27,28,36, Aib31]-PYY(23-36) (peptide)
peptide: Ac-SGRH[Cha][Cha]NL[Aib]TRQR[Cha]-NH2
SMILES: CC(=O)N[C@@H](CO)C(=O)NCC(=O)N[C@@H](CCCNC(=N)N)C(=O)N[C@@H](Cc1c[nH]cn1)C(=O)N[C@@H](CC1CCCCC1)C(=O)N[C@@H](CC1CCCCC1)C(=O)N[C@@H](CC(N)=O)C(=O)N[C@@H](CC(C)C)C(=O)NC(C)(C)C(=O)N[C@H](C(=O)N[C@@H](CCCNC(=N)N)C(=O)N[C@@H](CCC(N)=O)C(=O)N[C@@H](CCCNC(=N)N)C(=O)N[C@@H](CC1CCCCC1)C(N)=O)[C@@H](C)O
notes: also called compound No. 112

What was measured:
human Y2 receptor [1] = molecular target: T1, human Y2 receptor; test: cell-based or functional assay
human Y2 receptor [2] = molecular target: T1, human Y2 receptor; test: RBA: [125I]-PYY displacement, hY2R/CHO membranes
Description: After incubation at room temperature for 60 minutes, the mixture was filtered through the cell harvester FilterMate (PerkinElmer) using UniFilter-96 GF/C treated with polyethylenimine (PEI) solution (20 mM Tris, 0.3% PEI, pH 7.4), and the filter was washed 3 times with a filtering buffer (50 mM Tris, 5 mM MgCl₂, 150 mM NaCl, 0.03% NaN₃, 0.05% CHAPS, pH 7.4). Thereafter, UniFilter-96 GF/C was dried in a mechanical drier for 1 hour, 15 μl of the liquid scintillator MicroScint O (PerkinElmer) was added to each well, and a measurement was taken using TopCount (PerkinElmer). The data obtained were analyzed using Prism to calculate the IC₅₀ value.

Binder	GBA EC50 Ratio (vs PYY(3-36)), [35S]GTPγS (human Y2 receptor [1]) [ratio]	IC50 Ratio (vs PYY(3-36)) (human Y2 receptor [2]) [ratio]
B1	9.5	68
B2	2.4	4.1
B3	0.69	0.43
B4	1.1	0.73
B5	1.4	2.9
B6	2.1	9.3
B7	0.77	0.66
B8	2.6	7.1
B9	0.84	0.66
B10	2.6	5.2
B11	1.6	2.9
B12	1.8	3.6
B13	3.9	6.3
